In US20210363269A1 (ALX ONCOLOGY, published 2021) one finds binding result, koff and Kd data, which are given here for five molecules.

For orientation: koff means a measure of how fast the partners let go of each other. A high value points to a short-lived complex. The term Kd denotes the constant that tells how readily two partners part at equilibrium.

Test [1] concerns the target T1, cynomolgus SIRP-α D1 domain (cyno2) (cynomolgus monkey, UniProt Q5TFQ8 30-148 (human entry), limits assumed).
T1 chain: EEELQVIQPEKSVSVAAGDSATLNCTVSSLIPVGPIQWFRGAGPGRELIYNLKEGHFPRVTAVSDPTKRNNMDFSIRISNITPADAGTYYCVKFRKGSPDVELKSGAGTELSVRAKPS
As to the kind of experiment: SPR. The procedure, abridged:
(§1)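 Pre-filtered culture media supplied the scFv-Fc antibody clones, which were captured by anti-human IgG Fc amine-coupled (about 4000 RU) to a GLC chip on a ProteOn XPR36. SIRP analytes were flowed in PBS pH 7.4 with 0.01% Tween-20 at 25° C. Interspot and buffer-blank responses were subtracted from the data, which were then fitted to a 1:1 Langmuir model. Dissociation rate constants (koff) were derived from this fitting.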
Background: Surface plasmon resonance follows binding to a sensor surface in real time, without labels.

For test [2], the target named is T2, NOD mouse SIRP-α D1 domain (mouse (NOD strain)).
T2 chain: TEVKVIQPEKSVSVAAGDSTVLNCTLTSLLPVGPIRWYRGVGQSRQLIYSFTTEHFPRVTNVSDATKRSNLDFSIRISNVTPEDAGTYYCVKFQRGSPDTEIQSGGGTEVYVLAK
Briefly: SPR. In short, it runs like this:
as §1

The target in test [3] is T3, mouse 129 SIRP-α D1 domain (mouse (129 strain), UniProt P97797 32-150).
T3 construct: also called m129
T3 chain: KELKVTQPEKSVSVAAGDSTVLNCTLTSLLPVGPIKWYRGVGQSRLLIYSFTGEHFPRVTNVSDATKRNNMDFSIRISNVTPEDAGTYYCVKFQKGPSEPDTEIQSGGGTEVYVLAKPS
Briefly: SPR. In short, it runs like this:
as §1

Test [4] addresses T4, cynomolgus SIRP-α D1 domain (cyno1) (cynomolgus monkey, UniProt Q5TFQ8 30-148 (human entry), limits assumed).
T4 chain: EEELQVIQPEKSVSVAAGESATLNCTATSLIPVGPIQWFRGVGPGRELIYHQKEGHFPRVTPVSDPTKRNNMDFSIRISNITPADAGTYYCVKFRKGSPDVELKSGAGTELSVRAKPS
Briefly: SPR. The procedure, abridged:
as §1

Test [5] has as its target T5, C57BL/6 mouse SIRP-α D1 domain (mouse (C57BL/6 strain), UniProt P97797 32-148).
T5 sequence: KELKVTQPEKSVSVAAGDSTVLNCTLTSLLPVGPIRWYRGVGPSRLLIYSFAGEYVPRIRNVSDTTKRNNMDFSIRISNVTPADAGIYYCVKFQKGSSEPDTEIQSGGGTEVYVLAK
As to the kind of experiment: SPR. In short, it runs like this:
as §1

Test [6] addresses T6, high affinity SIRP-α D1 variant CV1-3.
T6 chain: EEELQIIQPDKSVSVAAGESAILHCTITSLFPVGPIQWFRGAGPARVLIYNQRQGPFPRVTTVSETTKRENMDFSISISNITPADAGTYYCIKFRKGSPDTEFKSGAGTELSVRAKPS
As to the kind of experiment: SPR, Langmuir fit. The procedure, abridged: as §1

The target in test [7] is T7, human SIRP-α v2 (human).
T7 construct: also called Human v2; Human V2
As to the kind of experiment: SPR. In short, it runs like this:
(§2)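 SIRP analytes at nominal, A280-based concentrations were injected in one-shot kinetic mode over purified antibodies that were amine-coupled to a GLC chip or captured by biotinylated Protein A on an NLC chip of a ProteOn XPR36. All runs were at 25° C in PBS pH 7.4 with 0.01% Tween-20. Apparent ka and kd came from a global simple Langmuir fit of double-referenced data, with KD as their ratio kd/ka.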

Test [8] addresses T8, human SIRP-α v1 (human, UniProt P78324 31-149).
T8 construct: also called Human v1; Human V1
Briefly: SPR; fitted KD column of Table P. The procedure, abridged:
as §2

For test [9], the target named is T9, human SIRPβ isoform 1 (human, UniProt O00241 30-148).
T9 construct: also called Beta; Human SIRPb
Briefly: SPR Koff +/-. In short, it runs like this: as §2
T9 sequence (O00241 30-148 limits assumed): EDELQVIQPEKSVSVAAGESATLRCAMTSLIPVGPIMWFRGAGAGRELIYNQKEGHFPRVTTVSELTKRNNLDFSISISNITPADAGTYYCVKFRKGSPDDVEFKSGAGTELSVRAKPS

For test [10], the target named is T8, human SIRP-α v1. Briefly: SPR Koff +/-. The procedure, abridged:
as §2

Test [11] has as its target T10, human SIRP-α v2 D1 domain (human).
T10 construct: also called human v2
As to the kind of experiment: SPR. In short, it runs like this: as §1

Test [12] deals with T11, human SIRPβ isoform 1 (human, UniProt O00241 30-148).
T11 construct: also called SIRPb; sirpb1
Briefly: SPR. The procedure, abridged: as §1
T11 sequence (O00241 30-148 limits assumed): as above

Test [13] addresses T1, cynomolgus SIRP-α D1 domain (cyno2). Briefly: SPR, Langmuir fit. The procedure, abridged:
as §1

Test [14] has as its target T12, human SIRP-α v1 D1 domain (human, UniProt P78324 31-149).
T12 construct: also called human v1
As to the kind of experiment: SPR, Langmuir fit. In short, it runs like this:
as §1

In test [15] the target is T4, cynomolgus SIRP-α D1 domain (cyno1). As to the kind of experiment: SPR, Langmuir fit. In short, it runs like this:
as §1

Test [16] has as its target T8, human SIRP-α v1. Briefly: SPR. In short, it runs like this: as §2
Another test has as its target T13, human SIRPγ isoform 1 (human, UniProt Q9P1W8 29-147).
T13 construct: also called Gamma; Human SIRPg
Briefly: SPR, antibody on GLC chip; fitted KD (M) in Table Q; weak binding, 23.9 nM. The protocol:
All experiments were performed at 25° C. using a SPR-based ProteOn XPR36 biosensor (BioRad, Inc, Hercules, Calif.) equipped with GLC or NLC sensor chips. […] Purification was carried out by standard Protein A affinity column chromatography and eluted antibodies were stored in PBS buffer.
For the method using GLC chip, the analytes were injected and flowed over anti-SIRPα antibodies immobilized (˜1000 RUs) on GLC chips using Proteon™ Amine Coupling Kit. For the immobilization step, GLC chip was activated with EDAC/Sulpho-NHS 1:1 (Biorad) diluted 1/100 for 300 s at 25 μL/min. Anti-SIRPα antibodies were diluted to 80 nM concentration in 10 mM sodium acetate buffer pH 4.5 and immobilized to the chip at 30 μL/min for 50 s. Chip was inactivated with ethanolamine for 300 s at 25 μL/min. The analytes (e.g., SIRP-α from different species, SIRP-β, SIRP-γ) were injected in a “one-shot” kinetic mode at nominal concentrations of 100, 33, 11, 3.7, 1.2 and 0 nM. Association times were monitored for 90 s at 100 μL/min, and dissociation times were monitored for 1200 s. The surfaces were regenerated with a 2:1 v/v blend of Pierce IgG elution buffer/4M NaCl.

For the next test, the target named is T14, BALBc mouse SIRP-α (mouse (BALB/c strain)).
T14 chain: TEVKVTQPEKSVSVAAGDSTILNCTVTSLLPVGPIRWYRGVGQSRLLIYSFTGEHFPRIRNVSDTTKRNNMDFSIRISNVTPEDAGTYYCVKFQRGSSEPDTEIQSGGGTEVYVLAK
As to the kind of experiment: SPR, antibody on GLC chip. In short, it runs like this:
(§3)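 Protein A-purified antibodies were diluted to 80 nM in 10 mM sodium acetate pH 4.5 and amine-coupled (~1000 RU) to a GLC chip of a ProteOn XPR36 biosensor. SIRP analytes were injected one-shot at 100, 33, 11, 3.7, 1.2 and 0 nM in PBS pH 7.4 with 0.01% Tween-20 at 25° C. Association ran 90 s at 100 μL/min and dissociation 1200 s. KD came from double-referenced data fitted globally to a Langmuir model, as kd/ka.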

The next test concerns the target T15, BL6 mouse SIRP-α (mouse (C57BL/6 strain), UniProt P97797 32-148).
T15 construct: also called C57BL/6
T15 sequence: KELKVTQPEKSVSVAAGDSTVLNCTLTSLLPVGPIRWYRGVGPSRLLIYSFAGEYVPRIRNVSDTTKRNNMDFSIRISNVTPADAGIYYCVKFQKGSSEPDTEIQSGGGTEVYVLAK
Briefly: SPR, antibody on GLC chip. In short, it runs like this:
as §3

In test [17] the target is T8, human SIRP-α v1. As to the kind of experiment: SPR, antibody on GLC chip. In short, it runs like this: as §3
The target in test [18] is T9, human SIRPβ isoform 1. As to the kind of experiment: SPR, antibody on GLC chip. The procedure, abridged:
as §3

For another test, the target named is T16, NOD mouse SIRP-α (mouse (NOD strain)).
T16 chain: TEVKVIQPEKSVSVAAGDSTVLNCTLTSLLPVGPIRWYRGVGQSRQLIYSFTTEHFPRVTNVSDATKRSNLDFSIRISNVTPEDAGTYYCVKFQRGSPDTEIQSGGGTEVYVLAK
As to the kind of experiment: SPR, antibody on GLC chip. The procedure, abridged:
as §3

Test [19] deals with T7, human SIRP-α v2. As to the kind of experiment: SPR, antibody on GLC chip. The procedure, abridged: as §3

T8 sequence (P78324 31-149 limits assumed): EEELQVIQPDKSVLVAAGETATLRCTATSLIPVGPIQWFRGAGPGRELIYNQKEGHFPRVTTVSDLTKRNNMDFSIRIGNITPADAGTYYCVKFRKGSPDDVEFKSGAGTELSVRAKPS
T7 sequence (chain, as listed by the source limits assumed): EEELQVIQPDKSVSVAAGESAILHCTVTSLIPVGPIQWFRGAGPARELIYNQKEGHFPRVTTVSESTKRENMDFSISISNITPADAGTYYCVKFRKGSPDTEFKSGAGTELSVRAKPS
T13 sequence (Q9P1W8 29-147 limits assumed): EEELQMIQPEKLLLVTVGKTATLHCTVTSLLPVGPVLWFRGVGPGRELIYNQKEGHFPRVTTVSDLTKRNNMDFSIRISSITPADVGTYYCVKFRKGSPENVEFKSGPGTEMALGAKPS
T12 sequence (P78324 31-149 limits assumed): as the sequence (P78324 31-149 limits assumed) above

B1: S45 (scFv, V domains shown)
VH: AVTLDESGGGLQTPGGALSLVCKASGFTFSSYAMGWVRQAPGKGLEWVAGIDDDGSTANYGPAVKGRATISRDNGQSTVRLQLNNPRAEDSGTYFCAKASVTGWSAHISGRLDTWGHGTEVIVSS
VL: ALTQPASVSANPGETVKITCSGGGIYYYGWYQQKSPGSAPVTLIYENDKRPSDIPSRFSGSTSGSTNTFTITGVQAEDEAVYYCGGYDSNTTSGIFGAGTTLTVL
notes: also called clone 45; scFv-Fc form of AB45
As for B1, the binding result in test [1], in test [2], in test [3], in test [4] and in [5] was “no binding (tested: Koff > 5 × 10^3 (legend))” in each case. For the same molecule, the koff in test [6] was 4.76e-05 s⁻¹.

B2: antibody 213 (antibody, V domains shown)
VH: DVQLVESGGGVVRPGESLRLSCEASGFTFRNYYMTWVRQAPGEGLEWVSTISDTGDTAYYADSVKGRFTISRDNSKNSLYLQMNSLRADDTAIYYCAKSWIWWTFFDYWGLGTLVTVSS
VL: ALTQPASVSANLGGTVEITCSGGNSNHYGWYQQKSPGSAPVTLIYADTNRPSNIPSRFSGSTSGSTTTLTITGVQAEDEAVYYCGGSSTGDGIFGAGTTLTVL
notes: also called S213
Regarding B2, the Kd in the test with human SIRP-α v2 [7] worked out at 1.69 nM; with human SIRP-α v1 [8], 6.05 nM. In addition, the binding result with human SIRPβ isoform 1 [9] is reported as “no binding”.

B3: antibody 214 (antibody, V domains shown)
VH: DVQLVESEGGVVRPGESLRLSCEASGFTFRNSYMTWVRQAPGEGLEWVSTISDTGDTAYYADSVKGRFTISRDNSKNSLYLQMNSLRAEDTAIYYCAKSWIWWTFFDYWGLGTLVTVSS
VL: ALTQPASVSANLGGTVEITCSGGNSNHYGWYQQKSPGSAPVTLIYADTNRPSNIPSRFSGSTSGSTSTLTITGVQAEDEAVYYCGGSSTGDGIFGAGTTLTVL
notes: also called S214
Turning to B3, the binding result in the test with human SIRP-α v1 [10] and with human SIRPβ isoform 1 [9] was “no binding” each time.

B4: S194 (scFv, V domains shown)
VH: DVQLVESGGGVVRPGESLRLSCAASGFTFRNYGMSWVRQAPGEGLEWVSASSGSGSTYYADSVKGRFTISRDNSKNTLYLQMNSLRAEDTAIYYCAKVTWNNFFDYWGLGTLVTVSS
VL: EIVLAQSPDTLSVSPGERATLTCRASQDVAGKLAWYQQKPGQAPRLLIHATSSRADGIPARFSGSGSGTEFTLTITGLQSEDFAVYYCQQHYDWSPLTFGGGTKVEIK
On to B4, for which the binding result (in [11]; in test [5]; with human SIRPβ isoform 1 [12]) was “no binding (tested: Koff > 5 × 10^3 (legend))” each time. The koff in test [13] was found to be 0.00111 s⁻¹; in test [6] it was 0.00111 s⁻¹; in test [14], 0.00117 s⁻¹; in test [15] it was 0.00131 s⁻¹.

B5: antibody 136 (antibody, V domains shown)
VH: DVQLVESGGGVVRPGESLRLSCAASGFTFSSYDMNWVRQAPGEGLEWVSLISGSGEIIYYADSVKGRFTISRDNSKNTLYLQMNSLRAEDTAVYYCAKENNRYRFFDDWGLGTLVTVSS
VL: ETVLTQSPGTLTLSPGERATLTCRASQSVYTYLAWYQEKPGQAPRLLIYGASSRATGIPDRFSGSGSGTEFTLTISSLQSEDFAVYYCQQYYDRPPLTFGGGTKVEIK
notes: also called AB136; S136
Regarding B5, the Kd with human SIRP-α v1 [16] amounted to 0.458 nM; with human SIRP-α v2 [7] it was 3.22 nM; in the test with human SIRPγ isoform 1, 23.9 nM; with BALBc mouse SIRP-α, 0.35 nM; with BL6 mouse SIRP-α, 12.7 nM; with human SIRP-α v1 [17], 0.458 nM. Moreover, the Kd with human SIRPβ isoform 1 [18] is 4.35 nM; in the test with NOD mouse SIRP-α, 0.554 nM; with human SIRP-α v2 [19], 1.63 nM.
